Measured values published in publication PMC10323135.

Target: Norovirus-like particle displaying C-terminal SpyTag (norovirus VP1 capsid protein fused with a C-terminal SpyTag) (norovirus strain Hu/GII.4/Sydney/NSW0514/2012/AU)
Assay: SDS-PAGE mobility shift of the covalent SpyTag/SpyCatcher conjugate

Q: With “SpyCatcher-M2e (SpyCatcher fused with the ectodomain of influenza matrix-2 protein) (designed binder)” as the substance, how does the conjugation efficiency read?
A: 24%
